# Measured values reported in the supplement of paper PMC9112550, “Optimization of the antimicrobial peptide Bac7 by deep mutational scanning” (BMC Biology, 2022).
# Tested on: Escherichia coli TOP10
# Test: shrunken log2 fold change of peptide-encoding DNA abundance (4.5 h post-induction vs induction); higher = less antimicrobial activity (less host growth inhibition)
# Conditions: time post-induction: 4.5 h; library: site-saturation at positions 5, 18, 19, 20
# 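Also: peptides expressed intracellularly from a pBAD plasmid library in pooled LB shake-flask culture, induced with 0.3% L-arabinose, DNA abundance read by NGS, three biological replicates, DESeq2 with apeglm shrinkage.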
row,Sequence,shrunken log2 fold change
1,RRIRHRPPRLPRPRPRPWVDPRP,0.0471
2,RRIRSRPPRLPRPRPRPKDIPRP,-0.828
3,RRIRCRPPRLPRPRPRPVFEPRP,-0.00537
4,RRIRPRPPRLPRPRPRPRYYPRP,-0.385
5,RRIRGRPPRLPRPRPRPWICPRP,-0.00439
6,RRIRYRPPRLPRPRPRPQQCPRP,-0.145
7,RRIRSRPPRLPRPRPRPPIYPRP,-0.0803
8,RRIRLRPPRLPRPRPRPKQCPRP,-0.0836
9,RRIRTRPPRLPRPRPRPHDLPRP,-0.0128
10,RRIRPRPPRLPRPRPRPQQCPRP,-0.462
11,RRIRARPPRLPRPRPRPPMTPRP,0.88
12,RRIRLRPPRLPRPRPRPEYWPRP,-0.0516
13,RRIRHRPPRLPRPRPRPISMPRP,-1.58
14,RRIRIRPPRLPRPRPRPTMMPRP,-0.0891
15,RRIRFRPPRLPRPRPRPMFPPRP,-0.368
16,RRIRHRPPRLPRPRPRPAVMPRP,-0.0305
17,RRIRTRPPRLPRPRPRPCHYPRP,-0.253
18,RRIRVRPPRLPRPRPRPSDMPRP,-0.519
19,RRIRNRPPRLPRPRPRPQDHPRP,-0.33
20,RRIRCRPPRLPRPRPRPFIEPRP,0.184
21,RRIRPRPPRLPRPRPRPNPYPRP,-0.465
22,RRIRYRPPRLPRPRPRPANSPRP,-0.11
23,RRIRTRPPRLPRPRPRPTPKPRP,0.283
24,RRIRNRPPRLPRPRPRPDGIPRP,0.0081
25,RRIRYRPPRLPRPRPRPMCYPRP,-0.399

row,Sequence,shrunken log2 fold change
1,RRIRHRPPRLPRPRPRPQGLPRP,-0.247
2,RRIRERPPRLPRPRPRPEDAPRP,-0.079
3,RRIRWRPPRLPRPRPRPINKPRP,-0.431
4,RRIRARPPRLPRPRPRPFPFPRP,-0.112
5,RRIRFRPPRLPRPRPRPQWHPRP,-0.461
6,RRIRVRPPRLPRPRPRPMGTPRP,0.113
7,RRIRARPPRLPRPRPRPQYHPRP,-0.398
8,RRIRHRPPRLPRPRPRPEGYPRP,-0.124
9,RRIRQRPPRLPRPRPRPTFHPRP,0.199
10,RRIRFRPPRLPRPRPRPHPMPRP,-0.367
11,RRIRRRPPRLPRPRPRPMTTPRP,0.0808
12,RRIRMRPPRLPRPRPRPPGVPRP,0.919
13,RRIRKRPPRLPRPRPRPNNKPRP,-0.162
14,RRIRPRPPRLPRPRPRPPTEPRP,0.306
15,RRIRKRPPRLPRPRPRPDEKPRP,0.411
16,RRIRKRPPRLPRPRPRPCKKPRP,-0.0301
17,RRIRKRPPRLPRPRPRPGRSPRP,0.256
18,RRIRPRPPRLPRPRPRPYKCPRP,-0.0297
19,RRIRDRPPRLPRPRPRPGSHPRP,0.235
20,RRIRQRPPRLPRPRPRPKARPRP,0.152
21,RRIRNRPPRLPRPRPRPDYSPRP,-0.0548
22,RRIRYRPPRLPRPRPRPYKVPRP,-0.0075
23,RRIRTRPPRLPRPRPRPAFPPRP,0.0262
24,RRIRSRPPRLPRPRPRPQHPPRP,-0.239
25,RRIRTRPPRLPRPRPRPEPAPRP,0.763

row,Sequence,shrunken log2 fold change
1,RRIRPRPPRLPRPRPRPWEVPRP,-0.0677
2,RRIRKRPPRLPRPRPRPTATPRP,1.4
3,RRIRDRPPRLPRPRPRPYPHPRP,1.85
4,RRIRKRPPRLPRPRPRPNFSPRP,-0.084
5,RRIRVRPPRLPRPRPRPSTHPRP,-0.573
6,RRIRPRPPRLPRPRPRPWSIPRP,-0.0637
7,RRIRVRPPRLPRPRPRPRIQPRP,-0.196
8,RRIRARPPRLPRPRPRPLEDPRP,0.241
9,RRIRDRPPRLPRPRPRPFFVPRP,0.0823
10,RRIRKRPPRLPRPRPRPDTQPRP,0.202
11,RRIRVRPPRLPRPRPRPWILPRP,0.000714
12,RRIRKRPPRLPRPRPRPMFDPRP,0.166
13,RRIRGRPPRLPRPRPRPCRFPRP,0.116
14,RRIRVRPPRLPRPRPRPSCAPRP,-0.16
15,RRIRFRPPRLPRPRPRPWKVPRP,-0.00133
16,RRIRARPPRLPRPRPRPRFCPRP,0.527
17,RRIRGRPPRLPRPRPRPFPAPRP,0.757
18,RRIRMRPPRLPRPRPRPERGPRP,1.39
19,RRIRFRPPRLPRPRPRPWHTPRP,-0.0673
20,RRIRHRPPRLPRPRPRPYMWPRP,-1.86
21,RRIRKRPPRLPRPRPRPEVQPRP,3.94
22,RRIRQRPPRLPRPRPRPNFCPRP,0.117
23,RRIRTRPPRLPRPRPRPTHMPRP,-0.0271
24,RRIRVRPPRLPRPRPRPIWHPRP,-0.164
25,RRIRYRPPRLPRPRPRPQLLPRP,-0.42

row,Sequence,shrunken log2 fold change
1,RRIRVRPPRLPRPRPRPQHEPRP,-0.245
2,RRIRTRPPRLPRPRPRPTWWPRP,0.538
3,RRIRCRPPRLPRPRPRPDECPRP,-0.00243
4,RRIRARPPRLPRPRPRPGCEPRP,1.1
5,RRIRLRPPRLPRPRPRPPEWPRP,0.682
6,RRIRCRPPRLPRPRPRPQVEPRP,0.0599
7,RRIRLRPPRLPRPRPRPWVMPRP,-1.02
8,RRIRTRPPRLPRPRPRPGHGPRP,0.138
9,RRIRFRPPRLPRPRPRPSFCPRP,-0.373
10,RRIRPRPPRLPRPRPRPFYLPRP,-0.685
11,RRIRHRPPRLPRPRPRPVINPRP,-0.242
12,RRIRIRPPRLPRPRPRPWYTPRP,-0.122
13,RRIRSRPPRLPRPRPRPMLWPRP,0.619
14,RRIRLRPPRLPRPRPRPIIFPRP,-0.288
15,RRIRLRPPRLPRPRPRPDSSPRP,0.00161
16,RRIRERPPRLPRPRPRPFVKPRP,-0.0102
17,RRIRWRPPRLPRPRPRPFKDPRP,-0.252
18,RRIRLRPPRLPRPRPRPLQDPRP,0.0629
19,RRIRVRPPRLPRPRPRPVDVPRP,-0.106
20,RRIRCRPPRLPRPRPRPRVQPRP,0.241
21,RRIRTRPPRLPRPRPRPEDEPRP,0.0995
22,RRIRGRPPRLPRPRPRPYNKPRP,-0.593
23,RRIRGRPPRLPRPRPRPMEIPRP,-0.0753
24,RRIRYRPPRLPRPRPRPGPWPRP,0.18
25,RRIRARPPRLPRPRPRPSELPRP,0.22

row,Sequence,shrunken log2 fold change
1,RRIRDRPPRLPRPRPRPWMHPRP,0.00346
2,RRIRCRPPRLPRPRPRPINYPRP,-0.271
3,RRIRPRPPRLPRPRPRPGAGPRP,0.555
4,RRIRVRPPRLPRPRPRPDDYPRP,-0.272
5,RRIRLRPPRLPRPRPRPTAKPRP,0.134
6,RRIRERPPRLPRPRPRPAWNPRP,0.167
7,RRIRCRPPRLPRPRPRPECCPRP,0.401
8,RRIRARPPRLPRPRPRPGKSPRP,0.294
9,RRIRARPPRLPRPRPRPFNVPRP,0.0338
10,RRIRRRPPRLPRPRPRPSCRPRP,0.0338
11,RRIRHRPPRLPRPRPRPMAGPRP,-0.0581
12,RRIRERPPRLPRPRPRPGHVPRP,-0.00285
13,RRIRTRPPRLPRPRPRPWHTPRP,-0.0217
14,RRIRERPPRLPRPRPRPAGCPRP,-0.0935
15,RRIRARPPRLPRPRPRPKMHPRP,0.364
16,RRIRRRPPRLPRPRPRPRLPPRP,0.663
17,RRIRQRPPRLPRPRPRPCCLPRP,-0.0936
18,RRIRYRPPRLPRPRPRPNRMPRP,-0.22
19,RRIRMRPPRLPRPRPRPFFLPRP,-0.199
20,RRIRHRPPRLPRPRPRPHSSPRP,-0.0394
21,RRIRLRPPRLPRPRPRPRYWPRP,-0.0087
22,RRIRCRPPRLPRPRPRPIQRPRP,0.0673
23,RRIRARPPRLPRPRPRPQHDPRP,-0.117
24,RRIRSRPPRLPRPRPRPFMWPRP,-0.165
25,RRIRLRPPRLPRPRPRPTVFPRP,0.156

row,Sequence,shrunken log2 fold change
1,RRIRIRPPRLPRPRPRPGHHPRP,-0.309
2,RRIRQRPPRLPRPRPRPGITPRP,-0.103
3,RRIRRRPPRLPRPRPRPFVEPRP,-0.142
4,RRIRSRPPRLPRPRPRPCSWPRP,-0.0623
5,RRIRSRPPRLPRPRPRPMHNPRP,-0.179
6,RRIRKRPPRLPRPRPRPALWPRP,0.27
7,RRIRARPPRLPRPRPRPPYNPRP,-0.399
8,RRIRGRPPRLPRPRPRPCPWPRP,-0.149
9,RRIRTRPPRLPRPRPRPSLVPRP,0.0852
10,RRIRIRPPRLPRPRPRPGLAPRP,0.201
11,RRIRTRPPRLPRPRPRPDACPRP,-0.0191
12,RRIRIRPPRLPRPRPRPEKWPRP,-0.0117
13,RRIRGRPPRLPRPRPRPFPHPRP,0.155
14,RRIRGRPPRLPRPRPRPQQYPRP,-0.107
15,RRIRVRPPRLPRPRPRPVSHPRP,0.173
16,RRIRVRPPRLPRPRPRPSFVPRP,-0.422
17,RRIRARPPRLPRPRPRPTMEPRP,0.564
18,RRIRARPPRLPRPRPRPGRMPRP,0.237
19,RRIRMRPPRLPRPRPRPSAAPRP,2.7
20,RRIRWRPPRLPRPRPRPFRIPRP,-0.5
21,RRIRCRPPRLPRPRPRPCGGPRP,0.113
22,RRIRVRPPRLPRPRPRPPACPRP,0.692
23,RRIRYRPPRLPRPRPRPVHHPRP,-0.211
24,RRIRSRPPRLPRPRPRPCSHPRP,-0.174
25,RRIRMRPPRLPRPRPRPFGSPRP,0.00388
